# Experimental data: US20230392126A1, “TISSUE ORGANOIDS” (priority 2016, published 2023)
# Assays:
# [1] = after i.v. injection; cited from earlier work
# [2] = system: human epidermal cells; type: cell-based
# [3] = Acquisition of ethanol CPP in GhBChE and GWT mice; type: in vivo, mouse; conditions: 2 g/kg ethanol i.p., specificity control
# Experimental: CPP apparatus: The CPP apparatus (FIG. 17; Med Associates, E. Fairfield, VT, USA) consisted of two larger chambers (16.8×12.7×12.7 cm), which were separated by a smaller chamber (7.2×12.7×12.7 cm) as previously described (Yan et al., 2013). […] Time spent in each chamber was measure via photobeam breaks and recorded. CPP was determined on testing days via time spent in the drug-paired side minus time spent in the saline-paired side.
# Acquisition of CPP: A biased CPP procedure was used similar to that from a previous study (Yan et al., 2013). Acquisition of CPP consisted of three sequential procedures—pretest, conditioning, and test. […] On Day 6 (test day) mice were allowed to explore the entire chambers for 20 min and time spent in each area was recorded. […]
# Next, protection against development of cocaine-seeking was assessed using the conditioned place preference (CPP) paradigm, which is thought to model reward learning and seeking because experimental animals approach and remain in contact with cues that have been paired with the effects of the reward. hBChE-expressing cells were grafted to cocaine-naïve mice with GWT animals as controls. […] As an additional control, ethanol CPP was measured after 4 days of conditioning in GhBChE and GWT mice.
# [4] = Extinction and ethanol-induced reinstatement of CPP; type: in vivo, mouse; conditions: 1 g/kg ethanol i.p., specificity control
# Experimental: (§1) Extinction and reinstatement of CPP: Following CPP acquisition, mice underwent extinction, in which the procedure was identical to that in the test day. In each extinction day, mice were allowed to explore the entire chambers for 20 min and time spent in each area was recorded. Extinction was performed until the CPP decreased to a level that was not different from that of the pretest in consecutive two days. On the following day of the last extinction, mice underwent reinstatement procedures, in which mice that were trained for cocaine CPP received an i.p. injection of 15 mg/kg cocaine, and mice that were trained for ethanol CPP received an i.p. injection of 1 g/kg ethanol. Immediate after injection, mice were allowed to explore the entire chambers for 20 min and time spent in each area was recorded.
# (§2) Specific methods: One group of GhBChE and one group of GWT mice (n=9 in each group) were trained for cocaine CPP 7 days after engraftment (FIG. 18A). Mice underwent pretest on Day 1, four days of cocaine conditioning day 2 to Day 5, and CPP test on Day 6. One group of GhBChE and one group of GWT mice (n=8 in each group) were trained for ethanol CPP 7 days after engraftment (FIG. 18B). Mice underwent pretest on Day 1, four ethanol conditioning day 2 to Day 5, and CPP test on Day 6. […]
# [5] = Extinction and cocaine-induced reinstatement of CPP; type: in vivo, mouse; conditions: grafted after CPP acquisition; priming 15 mg/kg cocaine
# Experimental: as §1, §2
# [6] = system: epidermal stem cells; assay: Anchorage-independent growth in soft agar; conditions: SCC cancer initiating cells as positive control
# [7] = cocaine hydrolysis; cited from earlier work
# [8] = Cocaine hydrolysis activity in vitro (clearance assay with conditioned medium)
molecule,measurement,setting,value
"hBChE: modified human butyrylcholinesterase (E30-6, SEQ ID NO: 41), cocaine hydrolase, expressed from engineered epidermal cells / skin grafts (protein, Human mutant BChE) MHSKVTIICIRFLFWFLLLCMLIGKSHTEDDIIIATKNGKVRGMNLTVFGGTVTAFLGIPYAQPPLGRLRFKKPQSLTKWSDIWNATKYANSCCQNIDQSFPGFHGSEMWNPNTDLSEDCLYLNVWIPAPKPKNATVLIWIYGGGFQTGTSSLHVYDGKFLARVERVIVVSMNYRVGALGFLALPGNPEAPGNMGLFDQQLALQWVQKNIAAFGGNPKSVTLFGESSGAASVSLHLLSPGSHSLFTRAILQSGSANAPWAVTSLYEARNRTLNLAKLTGCSRENETEIIKCLRNKDPQEILLNEAFVVPYGTALGVNFGPTVDGDFLTDMPDILLELGQFKKTQILVGVNKDEGTWFLVGGAPGFSKDNNSIITRKEFQEGLKIFFPGVSEFGKESILFHYTDWVDDQRPENYREALGDVVGDYNFICPALEFTKKFSEWGNNAFFYYFEHRSSKLPWPEWMGVMHGYEIEFVFGLPLERRDNYTKAEEILSRSIVKRWANFAKYGNPNETQNNSTSWPVFKSTEQKYLTLNTESTRIMTKLRAQQCRFWTSFFPKVLEMTGNIDEAEWEWKAGFHRWNNYMMDWKNQFNDYTSKKESCVGL",half-life in vivo,[1],short half-life in vivo
same,hBChE production,[2],strong hBChE production
same,ethanol CPP after 4 days of conditioning,[3],spent significantly more time in ethanol-paired environments
same,ethanol-induced reinstatement of CPP,[4],similarly reinstated in both GhBChE and GWT mice
same,cocaine-induced reinstatement of preference,[5],restored in the GWT mice but not in the GhBChE mice
same,anchorage-independent growth (tumorigenicity),[6],cannot grow in suspension
same,catalytic efficiency (kcat/KM) relative to wild-type (WT) hBChE,[7],more than 4400 times
same,cocaine hydrolysis activity of conditioned medium,[8],significantly induced degradation of cocaine in vitro
